In general, Kd refers to a measure of binding affinity in units of concentration. Lower therefore signals higher affinity.

For this experiment, the target named is NCP^H2AK15ub (nucleosome core particle with linked H2A-H2B enzymatically ubiquitylated at H2A Lys15) (human) (UniProt P0CG47). Briefly: ITC. A general note: ITC needs no label: the signal is the heat of the interaction.

“RAD18 (aa 198-240) (from UniProt Q9NS91 198-240) (domain or fragment)” had a Kd of 25.2 nM.

Source of the values: article PMC5523955.
